Each block holds one binder with its values, some of them ahead of it. Bridges are numbered along the chain shown (N, C = ends). Where no end group is shown, it is not given here.
Assays:
[1] = target: T1, HMW-MAA-specific human scFv C21 (biotinylated (NHS-LC-biotin) in the competition and panning assays); assay: calculated from a molecular docking model (…); not measured
[2] = target: T1, HMW-MAA-specific human scFv C21; assay: SPR (Biacore 3000, 25 C), peptide over amine-coupled scFv C21, koff/kon
[3] = target: T1, HMW-MAA-specific human scFv C21; assay: SPR (Biacore 3000, 25 C), peptide over amine-coupled scFv C21, 1:1 Langmuir fit
[4] = target: T1, HMW-MAA-specific human scFv C21; assay: inhibition cell ELISA: peptide incubated 2 h at 4 °C with PP scFv C21 (1:1600) and biotinylated mAb 9E10, then added to Colo38 cells, SA-HRP; blocked ligand: HMW-MAA on Colo38 cells

T1 sequence (chain, as listed by the source): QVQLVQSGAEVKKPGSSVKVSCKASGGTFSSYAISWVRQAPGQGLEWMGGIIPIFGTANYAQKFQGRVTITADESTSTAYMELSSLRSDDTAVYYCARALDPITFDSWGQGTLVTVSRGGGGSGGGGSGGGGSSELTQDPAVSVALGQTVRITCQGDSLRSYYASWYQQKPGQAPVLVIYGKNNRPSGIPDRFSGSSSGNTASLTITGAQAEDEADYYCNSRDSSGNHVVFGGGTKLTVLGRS

- Total Energy (calculated binding energy) [1]: -16.4 kcal/mol
- Kd [2]: 3.34 µM
- koff [3]: 0.00307 s⁻¹
- kon [3]: 917 M⁻¹ s⁻¹
B1: peptide P3S10 (RPYRYDPLGSLKSRH) (peptide)
peptide: RPYRYDPLGSLKSRH

- Total Energy (calculated binding energy) [1]: -7.3 kcal/mol
- Kd [2]: 30.2 µM
- koff [3]: 0.0655 s⁻¹
- kon [3]: 2170 M⁻¹ s⁻¹
- IC50 (read off the curve) [4]: ~1 µM
B2: peptide P3C21 (RPYRYDPLGDLKSRH), linear (peptide)
peptide: RPYRYDPLGDLKSRH

- Total Energy (calculated binding energy) [1]: -93.8 kcal/mol
- Kd [2]: 8.24 µM
- koff [3]: 0.0097 s⁻¹
- kon [3]: 1180 M⁻¹ s⁻¹
- IC50 (read off the curve) [4]: ~3 µM
B3: peptide P1C21 (SPSWYCPDCDKRPLV), cyclized (peptide)
peptide: SPSWYCPDCDKRPLV
modifications: disulfide 6-9 (inferred)
notes: Synthetic peptide

From patent publication US20110200608A1 (UNIVERSITY OF PITTSBURGH OF THE COMMONWEALTH SYSTEM OF …, published 2011)
